The source of these data is patent publication US20200024322A1 (Eli Lilly, published 2020).

Numbered stars: 1 amine (or outer) side, 2 acyl side, 3 side chain; on linkers, the order of the positions; unused ones are H or OH. Square brackets hold non-standard residues; d marks the D form. Side chains are listed from the residue outwards. Ends that are not written are not given here. * marks the point of attachment. C20 diacid = O=C(O)CCCCCCCCCCCCCCCCCCC(=O)*; γGlu = O=C(O)[C@H](CCC(=O)[*:2])N[*:1]; AEEA = NCCOCCOCC(=O)O; Aib = CC(C)(N)C(=O)O

The chains are these.
T1: human GIP receptor (human, UniProt P48546 22-466)
T1 construct: whole, on cells; Used as crude membranes of stably transfected CHO cells; also called hGIPR
T1 sequence (looked up): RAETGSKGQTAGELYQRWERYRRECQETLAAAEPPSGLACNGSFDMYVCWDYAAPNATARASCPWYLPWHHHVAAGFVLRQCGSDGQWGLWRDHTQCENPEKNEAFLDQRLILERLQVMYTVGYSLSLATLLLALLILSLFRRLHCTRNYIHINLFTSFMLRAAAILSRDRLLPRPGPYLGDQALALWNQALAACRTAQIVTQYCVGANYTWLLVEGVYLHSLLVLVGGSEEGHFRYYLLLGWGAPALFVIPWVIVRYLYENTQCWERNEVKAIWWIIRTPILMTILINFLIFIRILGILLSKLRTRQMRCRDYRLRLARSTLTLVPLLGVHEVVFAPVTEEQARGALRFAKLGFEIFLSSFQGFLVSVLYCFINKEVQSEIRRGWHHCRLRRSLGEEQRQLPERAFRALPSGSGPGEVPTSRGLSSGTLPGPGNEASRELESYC

B1: Example 23 (peptide)
peptide: Y[Aib]EGTFTSDK([AEEA-AEEA-γGlu-C20 diacid])SILLDKIAQ[Aib]AFIEYLIEGGPSSGAPPPS-NH2
modifications: N-terminus assumed
SMILES: CC[C@H](C)[C@H](NC(=O)[C@H](CCCCN)NC(=O)[C@H](CC(=O)O)NC(=O)[C@H](CC(C)C)NC(=O)[C@H](CC(C)C)NC(=O)[C@@H](NC(=O)[C@H](CO)NC(=O)[C@H](CCCCNC(=O)COCCOCCNC(=O)COCCOCCNC(=O)CC[C@H](NC(=O)CCCCCCCCCCCCCCCCCCC(=O)O)C(=O)O)NC(=O)[C@H](CC(=O)O)NC(=O)[C@H](CO)NC(=O)[C@@H](NC(=O)[C@H](Cc1ccccc1)NC(=O)[C@@H](NC(=O)CNC(=O)[C@H](CCC(=O)O)NC(=O)C(C)(C)NC(=O)[C@@H](N)Cc1ccc(O)cc1)[C@@H](C)O)[C@@H](C)O)[C@@H](C)CC)C(=O)N[C@@H](C)C(=O)N[C@@H](CCC(N)=O)C(=O)NC(C)(C)C(=O)N[C@@H](C)C(=O)N[C@@H](Cc1ccccc1)C(=O)N[C@H](C(=O)N[C@@H](CCC(=O)O)C(=O)N[C@@H](Cc1ccc(O)cc1)C(=O)N[C@@H](CC(C)C)C(=O)N[C@H](C(=O)N[C@@H](CCC(=O)O)C(=O)NCC(=O)NCC(=O)N1CCC[C@H]1C(=O)N[C@@H](CO)C(=O)N[C@@H](CO)C(=O)NCC(=O)N[C@@H](C)C(=O)N1CCC[C@H]1C(=O)N1CCC[C@H]1C(=O)N1CCC[C@H]1C(=O)N[C@@H](CO)C(N)=O)[C@@H](C)CC)[C@@H](C)CC
B2: Example 26 (peptide)
peptide: Y[Aib]EGTFTSDYSIK([AEEA-AEEA-γGlu-C20 diacid])LDKIAQ[Aib]AFIEYLIEGGPSSGAPPPS-NH2
modifications: N-terminus assumed
SMILES: CC[C@H](C)[C@H](NC(=O)[C@H](CCCCN)NC(=O)[C@H](CC(=O)O)NC(=O)[C@H](CC(C)C)NC(=O)[C@H](CCCCNC(=O)COCCOCCNC(=O)COCCOCCNC(=O)CC[C@H](NC(=O)CCCCCCCCCCCCCCCCCCC(=O)O)C(=O)O)NC(=O)[C@@H](NC(=O)[C@H](CO)NC(=O)[C@H](Cc1ccc(O)cc1)NC(=O)[C@H](CC(=O)O)NC(=O)[C@H](CO)NC(=O)[C@@H](NC(=O)[C@H](Cc1ccccc1)NC(=O)[C@@H](NC(=O)CNC(=O)[C@H](CCC(=O)O)NC(=O)C(C)(C)NC(=O)[C@@H](N)Cc1ccc(O)cc1)[C@@H](C)O)[C@@H](C)O)[C@@H](C)CC)C(=O)N[C@@H](C)C(=O)N[C@@H](CCC(N)=O)C(=O)NC(C)(C)C(=O)N[C@@H](C)C(=O)N[C@@H](Cc1ccccc1)C(=O)N[C@H](C(=O)N[C@@H](CCC(=O)O)C(=O)N[C@@H](Cc1ccc(O)cc1)C(=O)N[C@@H](CC(C)C)C(=O)N[C@H](C(=O)N[C@@H](CCC(=O)O)C(=O)NCC(=O)NCC(=O)N1CCC[C@H]1C(=O)N[C@@H](CO)C(=O)N[C@@H](CO)C(=O)NCC(=O)N[C@@H](C)C(=O)N1CCC[C@H]1C(=O)N1CCC[C@H]1C(=O)N1CCC[C@H]1C(=O)N[C@@H](CO)C(N)=O)[C@@H](C)CC)[C@@H](C)CC
B3: Example 28 (peptide)
peptide: Y[Aib]EGTFTSDYSILLK([AEEA-AEEA-γGlu-C20 diacid])KIAQ[Aib]AFIEYLIEGGPSSGAPPPS-NH2
modifications: N-terminus assumed
SMILES: CC[C@H](C)[C@H](NC(=O)[C@H](CCCCN)NC(=O)[C@H](CCCCNC(=O)COCCOCCNC(=O)COCCOCCNC(=O)CC[C@H](NC(=O)CCCCCCCCCCCCCCCCCCC(=O)O)C(=O)O)NC(=O)[C@H](CC(C)C)NC(=O)[C@H](CC(C)C)NC(=O)[C@@H](NC(=O)[C@H](CO)NC(=O)[C@H](Cc1ccc(O)cc1)NC(=O)[C@H](CC(=O)O)NC(=O)[C@H](CO)NC(=O)[C@@H](NC(=O)[C@H](Cc1ccccc1)NC(=O)[C@@H](NC(=O)CNC(=O)[C@H](CCC(=O)O)NC(=O)C(C)(C)NC(=O)[C@@H](N)Cc1ccc(O)cc1)[C@@H](C)O)[C@@H](C)O)[C@@H](C)CC)C(=O)N[C@@H](C)C(=O)N[C@@H](CCC(N)=O)C(=O)NC(C)(C)C(=O)N[C@@H](C)C(=O)N[C@@H](Cc1ccccc1)C(=O)N[C@H](C(=O)N[C@@H](CCC(=O)O)C(=O)N[C@@H](Cc1ccc(O)cc1)C(=O)N[C@@H](CC(C)C)C(=O)N[C@H](C(=O)N[C@@H](CCC(=O)O)C(=O)NCC(=O)NCC(=O)N1CCC[C@H]1C(=O)N[C@@H](CO)C(=O)N[C@@H](CO)C(=O)NCC(=O)N[C@@H](C)C(=O)N1CCC[C@H]1C(=O)N1CCC[C@H]1C(=O)N1CCC[C@H]1C(=O)N[C@@H](CO)C(N)=O)[C@@H](C)CC)[C@@H](C)CC
B4: Example 38 (peptide)
peptide: Y[Aib]EGTFTSDYSILLDKIAQ[Aib]AFIEYLIEK([AEEA-AEEA-γGlu-C20 diacid])GPSSGAPPPS-NH2
modifications: N-terminus assumed
SMILES: CC[C@H](C)[C@H](NC(=O)[C@H](CCCCN)NC(=O)[C@H](CC(=O)O)NC(=O)[C@H](CC(C)C)NC(=O)[C@H](CC(C)C)NC(=O)[C@@H](NC(=O)[C@H](CO)NC(=O)[C@H](Cc1ccc(O)cc1)NC(=O)[C@H](CC(=O)O)NC(=O)[C@H](CO)NC(=O)[C@@H](NC(=O)[C@H](Cc1ccccc1)NC(=O)[C@@H](NC(=O)CNC(=O)[C@H](CCC(=O)O)NC(=O)C(C)(C)NC(=O)[C@@H](N)Cc1ccc(O)cc1)[C@@H](C)O)[C@@H](C)O)[C@@H](C)CC)C(=O)N[C@@H](C)C(=O)N[C@@H](CCC(N)=O)C(=O)NC(C)(C)C(=O)N[C@@H](C)C(=O)N[C@@H](Cc1ccccc1)C(=O)N[C@H](C(=O)N[C@@H](CCC(=O)O)C(=O)N[C@@H](Cc1ccc(O)cc1)C(=O)N[C@@H](CC(C)C)C(=O)N[C@H](C(=O)N[C@@H](CCC(=O)O)C(=O)N[C@@H](CCCCNC(=O)COCCOCCNC(=O)COCCOCCNC(=O)CC[C@H](NC(=O)CCCCCCCCCCCCCCCCCCC(=O)O)C(=O)O)C(=O)NCC(=O)N1CCC[C@H]1C(=O)N[C@@H](CO)C(=O)N[C@@H](CO)C(=O)NCC(=O)N[C@@H](C)C(=O)N1CCC[C@H]1C(=O)N1CCC[C@H]1C(=O)N1CCC[C@H]1C(=O)N[C@@H](CO)C(N)=O)[C@@H](C)CC)[C@@H](C)CC
B5: Example 35 (peptide)
peptide: Y[Aib]EGTFTSDYSILLDKIAQ[Aib]AFIEYK([AEEA-AEEA-γGlu-C20 diacid])IEGGPSSGAPPPS-NH2
modifications: N-terminus assumed
SMILES: CC[C@H](C)[C@H](NC(=O)[C@H](CCCCN)NC(=O)[C@H](CC(=O)O)NC(=O)[C@H](CC(C)C)NC(=O)[C@H](CC(C)C)NC(=O)[C@@H](NC(=O)[C@H](CO)NC(=O)[C@H](Cc1ccc(O)cc1)NC(=O)[C@H](CC(=O)O)NC(=O)[C@H](CO)NC(=O)[C@@H](NC(=O)[C@H](Cc1ccccc1)NC(=O)[C@@H](NC(=O)CNC(=O)[C@H](CCC(=O)O)NC(=O)C(C)(C)NC(=O)[C@@H](N)Cc1ccc(O)cc1)[C@@H](C)O)[C@@H](C)O)[C@@H](C)CC)C(=O)N[C@@H](C)C(=O)N[C@@H](CCC(N)=O)C(=O)NC(C)(C)C(=O)N[C@@H](C)C(=O)N[C@@H](Cc1ccccc1)C(=O)N[C@H](C(=O)N[C@@H](CCC(=O)O)C(=O)N[C@@H](Cc1ccc(O)cc1)C(=O)N[C@@H](CCCCNC(=O)COCCOCCNC(=O)COCCOCCNC(=O)CC[C@H](NC(=O)CCCCCCCCCCCCCCCCCCC(=O)O)C(=O)O)C(=O)N[C@H](C(=O)N[C@@H](CCC(=O)O)C(=O)NCC(=O)NCC(=O)N1CCC[C@H]1C(=O)N[C@@H](CO)C(=O)N[C@@H](CO)C(=O)NCC(=O)N[C@@H](C)C(=O)N1CCC[C@H]1C(=O)N1CCC[C@H]1C(=O)N1CCC[C@H]1C(=O)N[C@@H](CO)C(N)=O)[C@@H](C)CC)[C@@H](C)CC
B6: Example 204 (peptide)
peptide: YXEGTXTSDXSIXLDEKAQXEFIXYLIEGGPSSGAPPPS
modifications: Aib2; αMeF(2F)6; 4Pal10; αMeL13; K17((2-[2-(2-Amino-ethoxy)-ethoxy]-acetyl)2-(γ-Glu)-CO-(CH2)16-CO2H); Aib20; D-Glu24; C-terminal NH2

The first test deals with T2, human GLP-1 receptor (human, UniProt P43220 24-463).
T2 construct: whole, on cells; Used as crude membranes of stably transfected HEK293 cells; also called hGLP1R; hGLP-1R
Nature of the test: SPA, [125I]-GLP-1 displacement, hGLP-1R membranes.
Regarding B1, the Ki is 6.32 nM.

As for B2, the affinity corresponds to a Ki of 4.22 nM.

As for B3, the Ki stood at 21.1 nM.

Consider B4, for which the affinity, expressed as Ki, was 31.3 nM.

Regarding Y[Aib]EGTFTSDYSILLDKIAQ[Aib]AFK([AEEA-AEEA-γGlu-C20 diacid])EYLIEGGPSSGAPPPS-NH2 [Example 33], the affinity, expressed as Ki, was 361 nM. Compared with the last molecule, the Ki is about 12-fold higher.

B5 gave a Ki of 54.6 nM.

In another test the target is T1, human GIP receptor. Nature of the test: SPA, [125I]-GIP displacement, hGIPR membranes.
As to B1, the Ki was 0.258 nM.

In the case of B2, the Ki turned out to be 0.176 nM.

B3 yielded a Ki of 0.24 nM.

Regarding B4, the Ki is 0.104 nM.

Molecule Y[Aib]EGTFTSDYSILLDKIAQ[Aib]AFK([AEEA-AEEA-γGlu-C20 diacid])EYLIEGGPSSGAPPPS-NH2 [Example 33] showed a Ki of 6.4 nM.

As to B5, the inhibition constant (Ki) amounted to 0.0358 nM.

For B6, the affinity corresponds to a Ki of 0.0704 nM. Compared with the last molecule, the Ki is about 2-fold higher.
